Measured values reported in article PMC7793260, “MreC and MreD balance the interaction between the elongasome proteins PBP2 and RodA” (PLoS Genetics, 2020).

Columns and labels:
Assay in all cases: FRET or BRET; as the two-plasmid FRET, cells treated with mecillinam (2 mg/L) for two mass doublings
Details in all cases: partners not purified
[1] = target: T1, PBP2 (wild type), fused to mKO or to mCherry (E. coli, UniProt P0AD65 1-633)
T1 construct: PBP2, peptidoglycan transpeptidase of the E. coli elongasome, wild type; mKO-PBP2 in all others; also called mKO-PBP2^WT; mKO-PBP2; source: E. coli LMC500, expressed from plasmid (15 uM IPTG), in fixed cells; not shown: mKO (donor construct, pWA004) or mCherry (acceptor construct), N-terminal, kept
T1 sequence (looked up): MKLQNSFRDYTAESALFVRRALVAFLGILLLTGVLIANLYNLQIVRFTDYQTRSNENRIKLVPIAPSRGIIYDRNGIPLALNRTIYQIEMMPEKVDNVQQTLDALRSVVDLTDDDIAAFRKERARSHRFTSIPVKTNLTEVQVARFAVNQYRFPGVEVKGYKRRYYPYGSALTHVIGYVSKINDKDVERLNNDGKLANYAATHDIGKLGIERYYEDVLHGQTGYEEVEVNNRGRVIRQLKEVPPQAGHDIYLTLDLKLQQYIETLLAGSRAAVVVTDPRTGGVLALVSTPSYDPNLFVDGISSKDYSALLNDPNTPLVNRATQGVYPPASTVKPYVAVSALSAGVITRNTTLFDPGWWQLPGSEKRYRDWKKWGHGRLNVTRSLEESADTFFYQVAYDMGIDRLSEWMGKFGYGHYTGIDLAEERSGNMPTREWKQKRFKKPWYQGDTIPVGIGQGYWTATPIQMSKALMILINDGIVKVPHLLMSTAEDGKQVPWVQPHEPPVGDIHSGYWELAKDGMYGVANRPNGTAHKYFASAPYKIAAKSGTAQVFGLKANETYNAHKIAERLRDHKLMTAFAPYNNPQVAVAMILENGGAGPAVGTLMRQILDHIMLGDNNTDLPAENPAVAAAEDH

mKO-PBP2^S330C = target: T2, mKO-PBP2^S330C (E. coli, UniProt P0AD65 1-633, S330C)
T2 construct: made from pWA004 by mutagenesis PCR; source: E. coli LMC500, expressed from plasmid (15 uM IPTG), in fixed cells; not shown: mKO, N-terminal, kept
T2 sequence (looked up): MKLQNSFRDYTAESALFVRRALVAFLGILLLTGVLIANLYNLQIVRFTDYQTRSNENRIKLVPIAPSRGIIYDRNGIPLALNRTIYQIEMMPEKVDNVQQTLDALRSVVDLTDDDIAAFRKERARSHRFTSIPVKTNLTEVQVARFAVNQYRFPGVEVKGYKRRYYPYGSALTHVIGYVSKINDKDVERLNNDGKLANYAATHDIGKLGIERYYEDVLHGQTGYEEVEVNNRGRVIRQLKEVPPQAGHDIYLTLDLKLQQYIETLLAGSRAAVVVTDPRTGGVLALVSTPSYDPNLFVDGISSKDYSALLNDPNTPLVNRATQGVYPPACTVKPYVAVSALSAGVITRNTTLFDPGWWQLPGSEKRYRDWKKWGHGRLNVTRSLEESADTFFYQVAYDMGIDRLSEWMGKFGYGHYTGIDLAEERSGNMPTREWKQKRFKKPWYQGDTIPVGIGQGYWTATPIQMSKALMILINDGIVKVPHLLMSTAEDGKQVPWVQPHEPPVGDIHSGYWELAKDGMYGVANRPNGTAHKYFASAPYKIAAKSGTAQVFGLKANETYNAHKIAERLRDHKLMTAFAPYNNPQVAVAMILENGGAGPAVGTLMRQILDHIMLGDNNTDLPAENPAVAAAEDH

mKO-^MalF37PBP2 = target: T3, mKO-^MalF37PBP2 (E. coli, UniProt P02916 1-37; P0AD65 46-633)
T3 construct: MalF of E. coli, the first 37 residues (cytoplasmic N-terminus and transmembrane helix), amplified from the MG1655 genome; PBP2 of E. coli excluding the first 45 residues (NT and TMH removed, periplasmic domain kept); also called PBP2 with the NT and TMH of MalF; source: E. coli LMC500, expressed from plasmid (15 uM IPTG), in fixed cells; not shown: mKO, N-terminal, kept
T3 chain (looked up): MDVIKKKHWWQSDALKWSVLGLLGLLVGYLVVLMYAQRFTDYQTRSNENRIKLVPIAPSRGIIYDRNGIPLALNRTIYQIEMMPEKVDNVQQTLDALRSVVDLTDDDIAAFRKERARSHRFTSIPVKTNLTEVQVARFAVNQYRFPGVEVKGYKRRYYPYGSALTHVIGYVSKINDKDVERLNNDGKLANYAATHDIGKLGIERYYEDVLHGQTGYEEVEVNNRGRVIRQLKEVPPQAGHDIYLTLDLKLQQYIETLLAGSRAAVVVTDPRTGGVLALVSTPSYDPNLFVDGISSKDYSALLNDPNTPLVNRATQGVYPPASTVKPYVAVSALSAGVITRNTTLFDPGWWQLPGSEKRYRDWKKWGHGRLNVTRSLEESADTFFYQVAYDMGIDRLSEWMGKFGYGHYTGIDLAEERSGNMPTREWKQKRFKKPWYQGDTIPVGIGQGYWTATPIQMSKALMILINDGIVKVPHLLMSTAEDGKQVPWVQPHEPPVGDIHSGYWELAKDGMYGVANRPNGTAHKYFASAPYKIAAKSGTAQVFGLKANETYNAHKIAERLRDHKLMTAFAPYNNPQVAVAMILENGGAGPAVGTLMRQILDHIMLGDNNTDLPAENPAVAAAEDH

B1: RodA (wild type), fused to mCherry or to mKO (enzyme, E. coli, UniProt P0ABG7 1-370, looked up)
chain: MTDNPNKKTFWDKVHLDPTMLLILLALLVYSALVIWSASGQDIGMMERKIGQIAMGLVIMVVMAQIPPRVYEGWAPYLYIICIILLVAVDAFGAISKGAQRWLDLGIVRFQPSEIAKIAVPLMVARFINRDVCPPSLKNTGIALVLIFMPTLLVAAQPDLGTSILVALSGLFVLFLSGLSWRLIGVAVVLVAAFIPILWFFLMHDYQRQRVMMLLDPESDPLGAGYHIIQSKIAIGSGGLRGKGWLHGTQSQLEFLPERHTDFIFAVLAEELGLVGILILLALYILLIMRGLWIAARAQTTFGRVMAGGLMLILFVYVFVNIGMVSGILPVVGVPLPLVSYGGSALIVLMAGFGIVMSIHTHRKMLSKSV
notes: RodA, peptidoglycan glycosyltransferase of the E. coli elongasome; wild-type rodA gene; mCh-RodA in all others; also called mCh-RodA; mKO-RodA; source: E. coli LMC500, expressed from plasmid (15 uM IPTG), in fixed cells; not shown: mCherry (acceptor construct, pSAV047-RodA) or mKO (donor construct, pXL56), N-terminal, kept
EfA (acceptor FRET efficiency) [1]: 7.9% | EfA (acceptor FRET efficiency) (mKO-PBP2^S330C): 6.6% | EfA (acceptor FRET efficiency) (mKO-^MalF37PBP2): 3%
